Key:
[1] = tested on: murine tumor cell lines (B16F10, CT26, Neuro-2a) expressing full-length MICA or MICB; assay: Shed and surface MICA/MICB in murine tumor cell lines transduced with full-length MICA or MICB; format: cell-based, mouse; details: B16F10 cells expressing MICA or MICB; comparison among mAbs
From the text: B16F10, CT26, Neuro-2a, EL4 and RMA-S cell lines were transduced with lentiviral vector pHAGE-CMV-fullEF1a. MICA (allele 009) cDNA or other inserts were placed between NotI and BamHI cloning sites, 3′ to the EF1α promoter and 5′ to the IRES. ZsGreen or luciferase cDNAs were cloned 3′ to the IRES as fluorescence or bioluminescence reporters, respectively. The vector with the ZsGreen reporter was used to compare expression of cDNAs encoding full length MICA, full-length MICB and secreted MICA (Neuro-2a, RMA-S and/or B16F10 cell lines). CT26, EL4 and B16F10 cell lines were transduced with the vector that supported expression of the luciferase reporter. […]
(§1) Tumor cells (5×10^4 or 1×10^5 per well, depending on the cell line) were cultured for 24 to 72 hours in 96-well plates (flat-bottom plates for adherent cell lines, U-bottom plates for suspension cell lines). […] MICA or control antibodies were added at different concentrations, and shed MICA/B was then detected in supernatants by ELISA using the Human MICA ELISA kit (Ab59569, Abcam) or Human MICB DuoSet ELISA kit (DY1599, R&D Systems), using the procedures recommended by the manufacturers. […]
MICA and MICB were detected on the cell surface by the PE-conjugated anti-MICA/B antibody (clone 6D4, 320906, Biolegend). […] All samples were acquired in a BD LSR Fortessa flow cytometer, and analyzed by FlowJo V10 software.

[2] = tested on: short-term human melanoma cell lines; assay: MICA/MICB shedding by short-term human melanoma cell lines; format: cell-based; details: 24-72 hours
From the text: A375, HCT-116, SK-N-SH, K562, A2058, B16F10, CT26, and Neuro-2a cell lines were all obtained from American Type Culture Collection (ATCC). HEPG2 and MDA-MB-231 cell lines were kindly provided by Drs. Chandan Sharma and Martin Hemler, Dana-Farber Cancer Institute, Boston. The EL4 and RMA-S cell lines were generous gifts from Dr. Mark Smyth, QIMR Berghofer Medical Research Institute, Herston, Australia. The short-term human melanoma cell lines CY.21A-S1, CY36-S1, and CY048-S were obtained from patients following surgical resection of metastatic lesions as previously described (27). All cell lines were mycoplasma free, as tested by MycoProbe Mycoplasma Detection Kit (R&D Systems). Human and murine cell lines were cultivated in RPMI-1640 or DMEM media, respectively, supplemented with 10% fetal bovine serum (FBS), 1× Glutamax® (Gibco), and 1× Penicillin and Streptomycin (Gibco). […]
as §1

B16F10-MICA cells = assay: Mouse NK cell transfer and B16F10-MICA metastases in Rag2−/− Il2rg−/− mice; format: in vivo
Procedure: NK cell adoptive transfer was done as described previously (25). Briefly, NK cells from mice of indicated genotypes were isolated from the spleen, enriched by negative selection, and sorted to achieve an NK cell purity of ˜99%. Subsequently, 2×10^5 NK cells were injected intravenously into Rag2^−/− IL2rg^−/− mice. Three days later, reconstitution was checked in blood samples by flow cytometry, and no differences in NK cell frequency were observed among the NK cell genotypes. Subsequently, 4×10^5 B16F10-MICA cells (with luciferase reporter) were injected intravenously (day 0). On days 1, 2, 7, and 10, mice received 200 μg 7C6-mIgG2b or MPC-11 (isotype control) by intraperitoneal injection. Mice were bled at the indicated time points. Euthanasia by CO2 inhalation was performed on day 14 followed by counting of superficial lung metastases as described above.

B1: 7C6: monoclonal antibody from mice immunized with recombinant MICA α3 domain; parental mIgG2b; VH SEQ ID NO: 7, VL SEQ ID NO: 8 (antibody)
VH: QIQLVQSGPELKKPGETVKVSCKASGYMFTNYAMNWVKQAPEKGLKWMGWINTHTGDPTYADDFKGRIAFSLETSASTAYLQINNLKNEDTATYFCVRTYGNYAMDYWGQGTSVTVSSAKTTAPSVYPLAPVCGDTTGSSVTLGCLVKGYFPEPVTLTWNSGSLSSGVHTFPAVLQSDLYTLSSSVTVTSS
VL: DIQMTQTTSSLSASLGDRVTISCSASQDISNYLNWYQQKPDGTVKLLIYDTSILHLGVPSRFSGSGSGTDYSLTISNLEPEDIATYYCQQYSKFPRTFGGGTTLEIK
modifications: mAb 7C6 heavy chain amino acid sequence; mAb 7C6 light chain amino acid sequence
- stabilization of MICA/B on the surface of tumor cells [1]: most effective in stabilizing MICAS on the surface of tumor cells
- MICA and MICB shedding by short-term human melanoma cell lines [2]: inhibited MICA and MICB shedding
- lung metastases after transfer of NK cells deficient in either NKG2D (Klrk1) or CD16 (Fcgr3a) (B16F10-MICA cells; day 14): therapeutic effect was maintained (but more variable)
- lung metastases after transfer of NK cells lacking both NKG2D and CD16 (B16F10-MICA cells; day 14): antibody therapy was ineffective
- lung metastases after transfer of WT NK cells (B16F10-MICA cells; day 14): most consistent reduction in the number of lung metastases
- serum shed MICA after transfer of NK cells lacking both NKG2D and CD16 (B16F10-MICA cells; mouse, in vivo): shed MICA was still reduced

Source: patent US12662540B2, “Compositions and methods for inhibition of MICA/B shedding” (DANA-FARBER CANCER INSTITUTE, INC., priority 2017, dated 2026)
